Test results reported in patent publication US20130005944A1 (ANCHOR THERAPEUTICS, published 2013).
Where no end group is shown, it is not given here. [ ]: non-standard residue; d: D form. The star is where a group is joined. Ala(3-Me-diazirin-3-yl) = CC1(C[C@H](N)C(=O)O)N=N1; Hexadecanesulfonyl = CCCCCCCCCCCCCCCCS(=O)(=O)*; 2Nal = N[C@@H](Cc1ccc2ccccc2c1)C(=O)O; Palmitoyl = CCCCCCCCCCCCCCCC(=O)*; Hyp = O=C(O)[C@@H]1C[C@@H](O)CN1; Cit = NC(=O)NCCC[C@H](N)C(=O)O; code z = not defined here; hSer = N[C@@H](CCO)C(=O)O; Nle = CCCC[C@H](N)C(=O)O; Pra = C#CC[C@H](N)C(=O)O; Dap = NC[C@H](N)C(=O)O

Molecular target: CXCR4 receptor (human, UniProt P61073 1-352)
Assay: cell-based or functional assay

Sequence of CXCR4 receptor (P61073 whole entry): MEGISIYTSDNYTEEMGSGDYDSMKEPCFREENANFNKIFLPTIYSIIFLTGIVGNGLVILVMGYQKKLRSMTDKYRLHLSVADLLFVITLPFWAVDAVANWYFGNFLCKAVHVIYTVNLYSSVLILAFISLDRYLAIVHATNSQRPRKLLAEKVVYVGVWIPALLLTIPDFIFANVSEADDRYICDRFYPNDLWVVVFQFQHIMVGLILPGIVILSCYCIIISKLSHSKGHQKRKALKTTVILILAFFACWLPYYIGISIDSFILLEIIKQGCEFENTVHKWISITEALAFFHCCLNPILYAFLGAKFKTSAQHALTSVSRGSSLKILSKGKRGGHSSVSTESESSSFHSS

In order of falling “% Intrinsic Activity, calcium flux, CEM cells (Flexstation)” value:
1. Palmitoyl-GGYQKKLRTATDKYRL (not fully specified) [Compound No. 41 (Pal-GGYQKKLRTATDKYRL)]  149%
2. Pal-GGYQKKLR[dP]ATDKYRL [Compound No. 27 (Pal-GGYQKKLRpATDKYRL)]  111%
3. Pal-GGYQKK[dP]R[dP]ATDKYRL [Compound No. 28 (Pal-GGYQKKpRpATDKYRL)]  107%
4. Pal-GGYQKKLR[dP][Dap]TDKYRL [Compound No. 34 (Pal-GGYQKKLRp(Dpr)TDKYRL)]  103%
5. Palmitoyl-MGYQKKLRSGTDKYRL (not fully specified) [Compound No. 19 (Pal-MGYQKKLRSGTDKYRL)]  101%
6. Palmitoyl-MGYQKKLPRSMTDKYRL (not fully specified) [Compound No. 7 (Pal-MGYQKKLPRSMTDKYRL)]  100%
7. Palmitoyl-CGYQKKLRSATDKYRL (not fully specified) [Compound No. 30 (Pal-CGYQKKLRSATDKYRL)]  95.3%
8. Palmitoyl-MGYQKKLRSHTDKYRL (not fully specified) [Compound No. 18 (Pal-MGYQKKLRSHTDKYRL)]  93.4%
9. Pal-GGYQKKLR[dP]WTDKYRL [Compound No. 33 (Pal-GGYQKKLRpWTDKYRL)]  93%
10. Pal-GGYQKKLR[dP]HTDKYRL [Compound No. 26 (Pal-GGYQKKLRpHTDKYRL)]  91.2%
11. Pal-GGYQKKLR[dP][dP]HTDKYRL [Compound No. 32 (Pal-GGYQKKLRppHTDKYRL)]  91.1%
12. Palmitoyl-MGYQKPLRSMTDKYRL [Compound No. 6 (Pal-MGYQKPLRSMTDKYRL)]  90.2%
13. Pal-GGYQKKLR[Hyp]HTDKYRL [Compound No. 35 (Pal-GGYQKKLR(Hyp)HTDKYRL)]  89.4%
14. Palmitoyl-GGYQKKLRSATDKYRL (not fully specified (C-terminus)) [Compound No. 25 (Pal-GGYQKKLRSATDKYRL)]  89.4%
15. Pal-GGYQKKLR[dP]ATDKFRL [Compound No. 29 (Pal-GGYQKKLRpATDKFRL)]  88.9%
16. Palmitoyl-MGYQKKLRPSMTDKYRL (not fully specified) [Compound No. 8 (Pal-MGYQKKLRPSMTDKYRL)]  88%
17. Pal-[code z]GYQKKLRS[code z]TDKYRL (not fully specified; printed as Pal-zGYQKKLRSzTDKYRL; reading uncertain) [Compound No. 23 (Pal-zGYQKKLRSzTDKYRL)]  87.2%
18. Palmitoyl-GGYQKKHRSATDKYRL (not fully specified) [Compound No. 38 (Pal-GGYQKKHRSATDKYRL)]  86.8%
19. Pal-GGYQKK[Ala(3-Me-diazirin-3-yl)]RSATDKYRL [Compound No. 37 (Pal-GGYQKK(photoLeu)RSATDKYRL)]  85.7%
20. {3‑(dodecyloxy)propanoate}-GGYQKKLRSATDKYRL (not fully specified (C-terminus)) [Compound No. 31 (3-(dodecyloxy)propanoate-GGYQKKLRSATDKYRL)]  84.2%
21. Palmitoyl-MGYQKKLRSMTDKFRL (not fully specified) [Compound No. 15 (Pal-MGYQKKLRSMTDKFRL)]  81.5%
22. Palmitoyl-GGYQKKLRSATDKYRLH (not fully specified) [Compound No. 40 (Pal-GGYQKKLRSATDKYRLH)]  78.7%
23. Pal-MGYQKKLRS[dP]MTDKYRL [Compound No. 9 (Pal-MGYQKKLRSpMTDKYRL)]  77.9%
24. Pal-[hSer]GYQKKLRS[hSer]TDKYRL [Compound No. 22 (Pal-xGYQKKLRSxTDKYRL)]  77.7%
25. Pal-[Pra]GYQKKLRSMTDKYRL [Compound No. 24 (Pal-(Pra)GYQKKLRSMTDKYRL)]  76.6%
26. Pal-MGYQKKLRSMTDKYR[Nle] [Compound No. 12 (Pal-MGYQKKLRSMTDKYR(Nle))]  73.2%
27. Pal-MGYQKKLRS[Nle]TDKYRL [Compound No. 17 (Pal-MGYQKKLRS(Nle)TDKYRL)]  62.7%
28. Pal-GYQKKLRS[Nle]TDKYRI [Compound No. 20 (Pal-GYQKKLRS(Nle)TDKYRI)]  62.5%
29. Palmitoyl-MGYQKKLRSMTDKYRV (not fully specified) [Compound No. 11 (Pal-MGYQKKLRSMTDKYRV)]  61.7%
30. Palmitoyl-MGYQKKLRSMTDKYKL (not fully specified) [Compound No. 13 (Pal-MGYQKKLRSMTDKYKL)]  61.4%
31. Pal-GGYQKKLR[dP][Hyp]TDKYRL [Compound No. 36 (Pal-GGYQKKLRp(Hyp)TDKYRL)]  55.2%
32. Pal-MGYQKKLRSMTDK[2Nal]RL [Compound No. 16 (Pal-MGYQKKLRSMTDK(Nal)RL)]  34.4%
33. Pal-MGYQKKLRSMTDKY[Cit]L [Compound No. 14 (Pal-MGYQKKLRSMTDKY(Cit)L)]  3.61%

In order of falling “EC50 (nM), calcium flux, CEM cells, agonist mode (Flexstation)” value:
1. Pal-MGYQKKLRSMTDKY[Cit]L [Compound No. 14 (Pal-MGYQKKLRSMTDKY(Cit)L)]  10000 nM
2. Pal-MGYQKKLRSMTDK[2Nal]RL [Compound No. 16 (Pal-MGYQKKLRSMTDK(Nal)RL)]  3020 nM
3. Palmitoyl-MGYQKKLRSMTDKYRV (not fully specified) [Compound No. 11 (Pal-MGYQKKLRSMTDKYRV)]  1320 nM
4. Pal-GGYQKKLR[dP][Hyp]TDKYRL [Compound No. 36 (Pal-GGYQKKLRp(Hyp)TDKYRL)]  603 nM
5. Palmitoyl-MGYQKKLRSGTDKYRL (not fully specified) [Compound No. 19 (Pal-MGYQKKLRSGTDKYRL)]  370 nM
6. Palmitoyl-GGYQKKLRSATDKYRLH (not fully specified) [Compound No. 40 (Pal-GGYQKKLRSATDKYRLH)]  297 nM
7. Pal-[Pra]GYQKKLRSMTDKYRL [Compound No. 24 (Pal-(Pra)GYQKKLRSMTDKYRL)]  267 nM
8. Pal-MGYQKKLRSMTDKYR[Nle] [Compound No. 12 (Pal-MGYQKKLRSMTDKYR(Nle))]  249 nM
9. Pal-GYQKKLRS[Nle]TDKYRI [Compound No. 20 (Pal-GYQKKLRS(Nle)TDKYRI)]  232 nM
10. Pal-MGYQKKLRS[Nle]TDKYRL [Compound No. 17 (Pal-MGYQKKLRS(Nle)TDKYRL)]  208 nM
11. Palmitoyl-MGYQKKLRSMTDKYKL (not fully specified) [Compound No. 13 (Pal-MGYQKKLRSMTDKYKL)]  194 nM
12. Palmitoyl-MGYQKKLRPSMTDKYRL (not fully specified) [Compound No. 8 (Pal-MGYQKKLRPSMTDKYRL)]  169 nM
13. Palmitoyl-MGYQKPLRSMTDKYRL [Compound No. 6 (Pal-MGYQKPLRSMTDKYRL)]  161 nM
14. {3‑(dodecyloxy)propanoate}-GGYQKKLRSATDKYRL (not fully specified (C-terminus)) [Compound No. 31 (3-(dodecyloxy)propanoate-GGYQKKLRSATDKYRL)]  154 nM
15. Palmitoyl-MGYQKKLPRSMTDKYRL (not fully specified) [Compound No. 7 (Pal-MGYQKKLPRSMTDKYRL)]  153 nM
16. Palmitoyl-CGYQKKLRSATDKYRL (not fully specified) [Compound No. 30 (Pal-CGYQKKLRSATDKYRL)]  144 nM
17. Palmitoyl-MGYQKKLRSMTDKFRL (not fully specified) [Compound No. 15 (Pal-MGYQKKLRSMTDKFRL)]  135 nM
18. Pal-[hSer]GYQKKLRS[hSer]TDKYRL [Compound No. 22 (Pal-xGYQKKLRSxTDKYRL)]  125 nM
19. Pal-MGYQKKLRS[dP]MTDKYRL [Compound No. 9 (Pal-MGYQKKLRSpMTDKYRL)]  123 nM
20. Palmitoyl-MGYQKKLRSHTDKYRL (not fully specified) [Compound No. 18 (Pal-MGYQKKLRSHTDKYRL)]  110 nM
21. Pal-GGYQKKLR[dP]WTDKYRL [Compound No. 33 (Pal-GGYQKKLRpWTDKYRL)]  109 nM
22. Palmitoyl-GGYQKKLRTATDKYRL (not fully specified) [Compound No. 41 (Pal-GGYQKKLRTATDKYRL)]  106 nM
23. Pal-GGYQKKLR[dP][Dap]TDKYRL [Compound No. 34 (Pal-GGYQKKLRp(Dpr)TDKYRL)]  89 nM
24. Pal-GGYQKKLR[dP]ATDKYRL [Compound No. 27 (Pal-GGYQKKLRpATDKYRL)]  85.9 nM
25. Pal-[code z]GYQKKLRS[code z]TDKYRL (not fully specified; printed as Pal-zGYQKKLRSzTDKYRL; reading uncertain) [Compound No. 23 (Pal-zGYQKKLRSzTDKYRL)]  83 nM
26. Pal-GGYQKKLR[dP][dP]HTDKYRL [Compound No. 32 (Pal-GGYQKKLRppHTDKYRL)]  73.2 nM
27. Pal-GGYQKK[Ala(3-Me-diazirin-3-yl)]RSATDKYRL [Compound No. 37 (Pal-GGYQKK(photoLeu)RSATDKYRL)]  71.2 nM
28. Pal-GGYQKKLR[dP]HTDKYRL [Compound No. 26 (Pal-GGYQKKLRpHTDKYRL)]  55.2 nM
29. Pal-GGYQKKLR[Hyp]HTDKYRL [Compound No. 35 (Pal-GGYQKKLR(Hyp)HTDKYRL)]  45 nM
30. Palmitoyl-GGYQKKLRSATDKYRL (not fully specified (C-terminus)) [Compound No. 25 (Pal-GGYQKKLRSATDKYRL)]  36.8 nM
31. Palmitoyl-GGYQKKHRSATDKYRL (not fully specified) [Compound No. 38 (Pal-GGYQKKHRSATDKYRL)]  27 nM
32. Pal-GGYQKKLR[dP]ATDKFRL [Compound No. 29 (Pal-GGYQKKLRpATDKFRL)]  26.3 nM
33. Pal-GGYQKK[dP]R[dP]ATDKYRL [Compound No. 28 (Pal-GGYQKKpRpATDKYRL)]  25 nM

For Hexadecanesulfonyl-GGYQKKLR[dP]HTDKYRL-NH2 (also: table lists the lipid as 'Pal') [Compound No. 46 (CH3(CH2)15SO2-GGYQKKLRpHTDKYRL-amide)], the “EC50 (nM), calcium flux, CEM cells, agonist mode (FLIPR)” value was 12.5 nM.
